In the supplement of paper PMC10567573:

B1: C1orf55 (parent)
chain: FTSPDYQQQCHEMAERLEDSVLKG

Variants of: B1
Test: protein stability index of a GFP-peptide fusion (GPS, HEK-293T) (PSI 1-6); higher = more stable
Conditions: c terminus: a fixed tail appended
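Note: lentivirally expressed fusions sorted by FACS into six bins by GFP to DsRed ratio, PSI derived from sequencing read proportions per bin multiplied by bin number.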

Variant	protein stability index
FTSPDYQQQCHEMAERLDDSVLKG [E18D]	1.9
FTSPDYQQQCHEMAERLHDSVLKG [E18H]	1.74
FTSPDYQQQCHEMAERLNDSVLKG [E18N]	1.44
FTSPDYQQQCHEMAERLCDSVLKG [E18C]	1.99
FTSPDYQQQCHEMAERLRDSVLKG [E18R]	2.36
FTSPDYQQQCHEMAERLMDSVLKG [E18M]	1.97
FTSPDYQQQCHEMAERLGDSVLKG [E18G]	2.23
FTSPDYQQQCHEMAERLVDSVLKG [E18V]	1.4
FTSPDYQQQCHEMAERLKDSVLKG [E18K]	1.74
FTSPDYQQQCHEMAERLPDSVLKG [E18P]	1.78
FTSPDYQQQCHEMAERLTDSVLKG [E18T]	1.4
FTSPDYQQQCHEMAERLLDSVLKG [E18L]	1.76
FTSPDYQQQCHEMAERLSDSVLKG [E18S]	2.06
FTSPDYQQQCHEMAERLQDSVLKG [E18Q]	2.05
FTSPDYQQQCHEMAERLADSVLKG [E18A]	1.96
FTSPDYQQQCHEMAERLFDSVLKG [E18F]	1.65
FTSPDYQQQCHEMAERLYDSVLKG [E18Y]	1.79
FTSPDYQQQCHEMAERLIDSVLKG [E18I]	1.52
FTSPDYQQQCHEMAERLWDSVLKG [E18W]	1.55
FTSPDYQQQCHEMAERLEDSVAKG [L22A]	2.42
FTSPDYQQQCHEMAERLEDSVDKG [L22D]	2.48
FTSPDYQQQCHEMAERLEDSVFKG [L22F]	1.9
FTSPDYQQQCHEMAERLEDSVKKG [L22K]	2.12
FTSPDYQQQCHEMAERLEDSVEKG [L22E]	2.1

Variant	protein stability index
FTSPDYQQQCHEMAERLEDSVIKG [L22I]	2.36
FTSPDYQQQCHEMAERLEDSVHKG [L22H]	2.05
FTSPDYQQQCHEMAERLEDSVCKG [L22C]	2.62
FTSPDYQQQCHEMAERLEDSVGKG [L22G]	2.57
FTSPDYQQQCHEMAERLEWSVLKG [D19W]	2.23
FTSPDYQQQCHEMAERLENSVLKG [D19N]	2.37
FTSPDYQQQCHEMAERLEQSVLKG [D19Q]	2.04
FTSPDYQQQCHEMAERLEESVLKG [D19E]	2.04
FTSPDYQQQCHEMAERLEGSVLKG [D19G]	1.77
FTSPDYQQQCHEMAERLEISVLKG [D19I]	2.86
FTSPDYQQQCHEMAERLESSVLKG [D19S]	2.87
FTSPDYQQQCHEMAERLEHSVLKG [D19H]	2.32
FTSPDYQQQCHEMAERLEMSVLKG [D19M]	2.08
FTSPDYQQQCHEMAERLEVSVLKG [D19V]	2.03
FTSPDYQQQCHEMAERLEKSVLKG [D19K]	1.35
FTSPDYQQQCHEMAERLEASVLKG [D19A]	1.83
FTSPDYQQQCHEMAERLEPSVLKG [D19P]	1.98
FTSPDYQQQCHEMAERLELSVLKG [D19L]	1.91
FTSPDYQQQCHEMAERLETSVLKG [D19T]	1.76
FTSPDYQQQCHEMAERLEYSVLKG [D19Y]	1.91
FTSPDYQQQCHEMAERLECSVLKG [D19C]	2.04
FTSPDYQQQCHEMAERLEFSVLKG [D19F]	1.79
FTSPDYQQQCHEMAERLERSVLKG [D19R]	1.65
FTSPDYQQQCHEMAERLEDSLLKG [V21L]	2.17

Variant	protein stability index
FTSPDYQQQCHEMAERLEDSDLKG [V21D]	2.34
FTSPDYQQQCHEMAERLEDSPLKG [V21P]	2.73
FTSPDYQQQCHEMAERLEDSFLKG [V21F]	2.01
FTSPDYQQQCHEMAERLEDSHLKG [V21H]	2.41
FTSPDYQQQCHEMAERLEDSELKG [V21E]	2.87
FTSPDYQQQCHEMAERLEDSTLKG [V21T]	2.65
FTSPDYQQQCHEMAERLEDSCLKG [V21C]	2.12
FTSPDYQQQCHEMAERLEDSALKG [V21A]	3.08
FTSPDYQQQCHEMAERLEDSNLKG [V21N]	2.94
FTSPDYQQQCHEMAERLEDSRLKG [V21R]	2.33
FTSPDYQQQCHEMAERLEDSKLKG [V21K]	2.99
FTSPDYQQQCHEMAERLEDSSLKG [V21S]	2.56
FTSPDYQQQCHEMAERLEDSGLKG [V21G]	2.09
FTSPDYQQQCHEMAERLEDSMLKG [V21M]	1.9
FTSPDYQQQCHEMAERLEDSYLKG [V21Y]	2.06
FTSPDYQQQCHEMAERLEDSWLKG [V21W]	1.68
FTSPDYQQQCHEMAERLEDSILKG [V21I]	2.55
FTSPDYQQQCHEMAERLEDSQLKG [V21Q]	2.21
FTSPDYQQQCHEMAERLEDWVLKG [S20W]	2.08
FTSPDYQQQCHEMAERLEDKVLKG [S20K]	1.75
FTSPDYQQQCHEMAERLEDIVLKG [S20I]	2.26
FTSPDYQQQCHEMAERLEDFVLKG [S20F]	1.85
FTSPDYQQQCHEMAERLEDGVLKG [S20G]	1.72
FTSPDYQQQCHEMAERLEDAVLKG [S20A]	1.95

Variant	protein stability index
FTSPDYQQQCHEMAERLEDPVLKG [S20P]	2.12
FTSPDYQQQCHEMAERLEDVVLKG [S20V]	2.7
FTSPDYQQQCHEMAERLEDHVLKG [S20H]	1.75
FTSPDYQQQCHEMAERLEDNVLKG [S20N]	1.55
FTSPDYQQQCHEMAERLEDEVLKG [S20E]	2.67
FTSPDYQQQCHEMAERLEDYVLKG [S20Y]	1.91
FTSPDYQQQCHEMAERLEDCVLKG [S20C]	2.4
FTSPDYQQQCHEMAERLEDTVLKG [S20T]	2.08
FTSPDYQQQCHEMAERLEDDVLKG [S20D]	2.3
FTSPDYQQQCHEMAERLEDQVLKG [S20Q]	2.9
FTSPDYQQQCHEMAERLEDMVLKG [S20M]	2.06
FTSPDYQQQCHEMAERLEDRVLKG [S20R]	2.47
FTSPDYQQQCHEMAERLEDLVLKG [S20L]	2.93
FTSPDYQQQCHEMAERQEDSVLKG [L17Q]	2.34
FTSPDYQQQCHEMAERPEDSVLKG [L17P]	2.66
FTSPDYQQQCHEMAERSEDSVLKG [L17S]	2.47
FTSPDYQQQCHEMAERREDSVLKG [L17R]	2.72
FTSPDYQQQCHEMAERNEDSVLKG [L17N]	2.23
FTSPDYQQQCHEMAERTEDSVLKG [L17T]	2.9
FTSPDYQQQCHEMAERYEDSVLKG [L17Y]	2.22
FTSPDYQQQCHEMAERWEDSVLKG [L17W]	1.98
FTSPDYQQQCHEMAERVEDSVLKG [L17V]	2.35
